Consider one molecule from article PMC8673607, “ENAP1 retrains seed germination via H3K9 acetylation mediated positive feedback regulation of ABI5” (PLoS Genetics, 2021).

The target in this test is T1, His-ABI5 (Arabidopsis, UniProt Q9SJN0 1-442).
T1 construct: ABI5, Arabidopsis, AT2G36270; CDS ligated to pET28a; source: E. coli, purified (Ni-NTA agarose)
T1 sequence (looked up): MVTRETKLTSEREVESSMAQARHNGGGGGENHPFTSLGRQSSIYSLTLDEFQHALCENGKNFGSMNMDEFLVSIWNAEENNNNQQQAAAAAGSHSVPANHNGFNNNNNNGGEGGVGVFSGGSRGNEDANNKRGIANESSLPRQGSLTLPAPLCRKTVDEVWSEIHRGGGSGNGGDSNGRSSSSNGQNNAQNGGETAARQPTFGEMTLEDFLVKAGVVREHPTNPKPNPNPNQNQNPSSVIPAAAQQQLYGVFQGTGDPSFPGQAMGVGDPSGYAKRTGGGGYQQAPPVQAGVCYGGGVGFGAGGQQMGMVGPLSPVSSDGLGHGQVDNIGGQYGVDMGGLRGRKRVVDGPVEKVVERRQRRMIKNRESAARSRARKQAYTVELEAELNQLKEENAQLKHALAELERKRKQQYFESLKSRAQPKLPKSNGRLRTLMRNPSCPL
Briefly: pull-down; His-ABI5 purified with Ni-NTA agarose incubated with dialyzed MBP fused proteins 1h at 4°C; column buffer 20 mM Tris-HCl pH 7.4, 0.2 M NaCl, 1 mM EDTA; blots with anti-His and anti-MBP. Conditions: both partners purified.

B1: MBP-ENAP1 (natural protein, Arabidopsis, UniProt Q8VZI9 1-249, looked up)
chain: METTPETQSKTHRLPAGREDWWSEDATATLIEAWGDRYVNLNRGNLRQNDWKEVADAVNSSHGNGRPKTDVQCKNRIDTLKKKYKTEKAKPLSNWCFFDRLDFLIGPVMKKSSGAVVKSALMNPNLNPTGSKSTGSSLDDDDDDDDDDEEDDDDAGDWGFVVRKHRKVEDVDSSEGSAFRELARSILKLGEAFERIEGKKQQMMIELEKQRMEVAKELELQRMNMLMEMQLELEKSKLGKRRAASGKKL
notes: ENAP1, Arabidopsis, At3G11100; CDS ligated to pVP13 (Gateway vector, His tag removed); source: E. coli, purified (amylose resin, eluted with maltose, dialyzed)
For the molecule B1, the binding result is reported as “binds”.
